# Measured values as given in PMC7884431.
# Legend:
# [1] = test system: RFL29a (Rf3) (Triticum aestivum (accession R0934F for the cloned gene; source of the REMSA construct not stated)); test: EMSA; details: apparent Kd; protein mostly aggregated; 1 nM probe; Binding buffer 1x THE (34 mM Tris, 66 mM HEPES, 0.1 mM EDTA, pH 8), 0.2 M NaCl, 5 mM DTT, 5 mg/mL heparin, 0.1 mg/mL BSA, RNaseOUT (10 uL) + 5 uL protein in …
# [2] = test system: RFL79 (Rf1) (Triticum aestivum (accession R197 for the cloned gene; source of the REMSA construct not stated)); test: EMSA; details: apparent Kd; protein mostly aggregated; 1 nM probe; Binding buffer 1x THE (34 mM Tris, 66 mM HEPES, 0.1 mM EDTA, pH 8), 0.2 M NaCl, 5 mM DTT, 5 mg/mL heparin, 0.1 mg/mL BSA, RNaseOUT (10 uL) + 5 uL protein in …
Sequence,Kd [1] [µM],Kd [2] [µM]
CUUCACCUGUGCACUUAUUUAUGUAU [BS RFL29a (orf279)],1,
CUGUAAAUCAAGAAUUCCUCGAAGA [BS RFL79 (orf279)],,1
